Experimental data reported in US20250250357A1 (NANJING ZAIMING PHARMACEUTICAL, published 2025).

T1: monkey MSLN full-length protein (NCBI: XP_028696439.1) expressed on HEK293T-monkey MSLN cells (monkey)
T1 construct: Whole encoded precursor
T1 chain: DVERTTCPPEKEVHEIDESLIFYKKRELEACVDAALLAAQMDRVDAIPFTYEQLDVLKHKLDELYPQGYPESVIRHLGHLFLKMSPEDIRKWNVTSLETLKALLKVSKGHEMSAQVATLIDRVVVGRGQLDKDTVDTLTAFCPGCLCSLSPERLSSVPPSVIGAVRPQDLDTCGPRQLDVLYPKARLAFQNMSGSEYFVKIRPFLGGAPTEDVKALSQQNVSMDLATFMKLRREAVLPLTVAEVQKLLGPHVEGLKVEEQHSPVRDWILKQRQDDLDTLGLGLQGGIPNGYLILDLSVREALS


Experiments:
[1] = target: T2, human MSLN full-length protein (NCBI: AAH09272.1) expressed on HEK293T-hMSLN-B8 cells (human, UniProt Q13421 296-598); test: FACS on HEK293T-hMSLN-B8 cells
T2 construct: Whole encoded precursor
Description: (§1) The desired cells were expanded to the logarithmic growth phase in a T-75 cell culture flask. […] After the cells from the previous step were subjected to cell counting, the cell pellet was resuspended to 2×10⁶ cells/mL in a blocking buffer of [PBS+2% (w/w) BSA] and added into a 96-well FACS reaction plate at 50 μL/well. A chimeric antibody (a sample to be tested) was added at 50 μL/well, and the plate was incubated on ice for 2 h. […] After the plate was centrifuged and washed 5 times with a PBST buffer, assay and analysis were performed by FACS (FACS CantoII, purchased from BD). Data analysis was performed by software (Flowjo) to obtain the mean fluorescence intensity (MFI) of the cells.

[2] = target: T3, human MSLN protein endogenously expressed on OVCAR3 tumor cells (human, UniProt Q13421 296-598); test: FACS on OVCAR3 cells
T3 construct: whole, on cells; Endogenous target on OVCAR3 cells; kept apart from the recombinant full-length construct; also called mesothelin
Description: as §1

[3] = target: T1, monkey MSLN full-length protein (NCBI: …); test: FACS on HEK293T-monkey MSLN cells
Description: as §1

[4] = target: T4, human MSLN-R3 protein (Met487-Ser606 of NCBI AAH09272.1) expressed on HEK293T-hMSLN-R3 cells (human, UniProt Q13421 487-606); test: FACS on HEK293T-hMSLN-R3 cells
T4 construct: also called Region3
Description: as §1

[5] = target: T5, human MSLN-FL-his protein (human, UniProt Q13421 296-580); test: ELISA on coated antigen, no antibody (blank, column 'none')
T5 construct: Made in HEK293E cells, purified on nickel column; it is put last here; also called human MSLN full-length protein; hMSLN-FL-his; not shown: His tag

[6] = target: T5, human MSLN-FL-his protein; test: ELISA on coated antigen, antibody 0.001 nM
Description: (§2) The plate was sealed with a plastic film and incubated at 4° C. overnight. The next day, the plate was washed twice with PBST, and a blocking buffer [PBS+2% (w/w) BSA] was added for blocking at room temperature for 2 h. The blocking buffer was discarded, and a chimeric antibody or negative control antibody serially diluted from 100 nM was added at 50 μL/well. After incubation at 37° C. for 2 h, the plate was washed 3 times with PBST. […] After incubation at 37° C. for 2 h, the plate was washed 5 times with PBST. A TMB substrate was added at 50 μL/well for incubation at room temperature for 5-10 min, and then a stop solution (1.0 N HCl) was added at 50 μL/well.

[7] = target: T5, human MSLN-FL-his protein; test: ELISA on coated antigen, antibody 1 nM
Description: as §2

[8] = target: T5, human MSLN-FL-his protein; test: ELISA on coated antigen, antibody 0.1 nM
Description: as §2

[9] = target: T5, human MSLN-FL-his protein; test: ELISA on coated antigen, antibody 10 nM
Description: as §2

[10] = target: T5, human MSLN-FL-his protein; test: ELISA on coated antigen, antibody 0.01 nM
Description: as §2

[11] = target: T5, human MSLN-FL-his protein; test: ELISA on coated antigen, antibody 100 nM
Description: as §2

[12] = target: T5, human MSLN-FL-his protein; test: ELISA on coated antigen, antibody 0.0001 nM
Description: as §2

T2 sequence (Q13421 other isoform, or with tags, fused parts or gaps limits assumed): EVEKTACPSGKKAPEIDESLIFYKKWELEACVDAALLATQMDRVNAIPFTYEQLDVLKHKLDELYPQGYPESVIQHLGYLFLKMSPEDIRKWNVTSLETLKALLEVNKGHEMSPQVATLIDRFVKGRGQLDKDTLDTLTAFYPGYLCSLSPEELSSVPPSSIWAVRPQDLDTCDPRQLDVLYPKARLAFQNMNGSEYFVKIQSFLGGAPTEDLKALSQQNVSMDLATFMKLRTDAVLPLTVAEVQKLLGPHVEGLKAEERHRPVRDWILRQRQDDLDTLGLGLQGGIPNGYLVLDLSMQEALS
T5 sequence (Q13421 other isoform, or with tags, fused parts or gaps): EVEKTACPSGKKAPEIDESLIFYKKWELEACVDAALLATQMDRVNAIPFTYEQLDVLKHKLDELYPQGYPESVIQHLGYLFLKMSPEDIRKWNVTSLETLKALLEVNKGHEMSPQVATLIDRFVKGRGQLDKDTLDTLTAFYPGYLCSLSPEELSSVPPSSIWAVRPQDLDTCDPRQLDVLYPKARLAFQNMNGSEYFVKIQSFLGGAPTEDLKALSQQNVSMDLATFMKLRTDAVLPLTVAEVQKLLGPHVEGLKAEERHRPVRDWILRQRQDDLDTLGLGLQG
T3 sequence (Q13421 other isoform, or with tags, fused parts or gaps): as the sequence (Q13421 other isoform, or with tags, fused parts or gaps limits assumed) above, with P14R counted along it
T4 sequence (Q13421 495-614): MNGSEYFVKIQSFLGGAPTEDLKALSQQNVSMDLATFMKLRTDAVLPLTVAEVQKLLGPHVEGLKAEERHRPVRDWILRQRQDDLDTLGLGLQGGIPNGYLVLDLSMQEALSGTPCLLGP

Binder | EC50 [1] [nM] | Maximum mean fluorescence intensity [1] | EC50 [2] [nM] | Maximum mean fluorescence intensity [2] | EC50 [3] [nM] | Maximum mean fluorescence intensity [3] | EC50 [4] [nM] | Maximum mean fluorescence intensity [4] | OD450 [5] [OD] | OD450 [6] [OD] | OD450 [7] [OD] | OD450 [8] [OD] | OD450 [9] [OD] | OD450 [10] [OD] | OD450 [11] [OD] | OD450 [12] [OD] | binding result [4] | binding result [3]
S009-F2.39.3 (antibody, human IgG1, kappa, V domains shown, human-murine chimeric antibody, human IgG1/kappa constant regions) VH: QVQLQQPGTELVKPGASVKLSCKASGYTFTNYWMHWVKQRPGQGLEWIGNINPSSGDSYYNERFMSKAKMTVDKSSSTAYMQLSSLTSEDSAVYYCARSGGLWLAFWGPGTLVTVSA VL: DIVMTQSPSSLAMSVGQKVTMSCKSSQTLLNSVSQNNYLAWYQQKPGQSPTLLVYFASTRESGVPDRFIGGGSGTDFTLTISSVQAEDLADYFCQQHYRTPYTFGGGTNLEIKR | 5.79 | 138000 | 5.52 | 14600 | 4.18 | 20800 | 4.19 | 3290 |  |  |  |  |  |  |  |  |  | 
S009-F8-36.12 (antibody, human IgG1, kappa, V domains shown, Human-murine chimeric antibody, human IgG1 heavy and kappa light constant regions) VH: EVQLQQSGPELVKPGASVKISCKASGYTFTDYYMNWVKQSHGKSLEWIGDINPNNGGTSYNQKFKGKATLTVDKSSSTAYMELRSLTSEDSAVYYCASWGYGSSSRGYFDYWGQGTTLTVSS VL: QIVLSQSPAILSASPGEKVTMTCRASSSVSYMHWYQQKPGSSPKPWIYATSNLASGVPARFSGSGSGTSYSLTISRVEAEDAATYYCQQWSSNPWTFGGGTKLEIKR |  |  |  |  |  |  |  |  | 0.04 | 0.06 | 2.21 | 0.73 | 2.69 | 0.18 | 2.71 | 0.05 |  | 
S009-F2.17.3 (antibody, human IgG1, kappa, V domains shown, human-murine chimeric antibody, human IgG1/kappa constant regions) VH: QVQLQQPGTELVTPGASVKLSCKASGYSFTSYWMHWVKQRPGQGLEWIGNINPSNGDTFYNEKFKNKATLTVDKSSSTAYMQLSSLTSEDSAVYYCARGWLRDYWGQGTTLTVSS VL: not shown | 3.95 | 148000 | 2.92 | 17600 | 1.63 | 24300 | 1.48 | 3840 |  |  |  |  |  |  |  |  |  | 
S009-F2.23.12 (antibody, human IgG1, kappa, V domains shown, human-murine chimeric antibody, human IgG1/kappa constant regions) VH: QVQLQQPGTELVKPGASVKLSCKASGYTFTNYWMHWVKQRPGQGLEWIGNINPSNGGPYYNERFRSKATLTVDKSSSTAYMQLSSLTSEDSAVYYCARPYYGSSYGYFDYWGQGTTLTVSS VL: DIQMTQSPSSLSASLGGKVTITCKASQDINKYIAWYQHKPGKGPRLLIHYTSELQPGIPSRFSGNGSGRDYSFSISNLEPEDIATYYCLQYANPLRTFGGGTKLEIKR | 2.39 | 144000 | 1 | 14600 | ~0.83 | 20400 | 0.5 | 3880 |  |  |  |  |  |  |  |  |  | 

Next, values leading:

EC50 [1] [nM] | Maximum mean fluorescence intensity [1] | EC50 [2] [nM] | Maximum mean fluorescence intensity [2] | EC50 [3] [nM] | Maximum mean fluorescence intensity [3] | EC50 [4] [nM] | Maximum mean fluorescence intensity [4] | OD450 [5] [OD] | OD450 [6] [OD] | OD450 [7] [OD] | OD450 [8] [OD] | OD450 [9] [OD] | OD450 [10] [OD] | OD450 [11] [OD] | OD450 [12] [OD] | binding result [4] | binding result [3] | Binder
~0.82 | 98200 | 10.4 | 15400 | 0.32 | 17100 |  |  |  |  |  |  |  |  |  |  |  |  | S009-F2.47.1 (antibody, human IgG1, kappa, V domains shown, human-murine chimeric antibody, human IgG1/kappa constant regions) VH: QVQLQQPGAELVKPGASVKLSCKASGYTFTSYWMHWVKQRPGQGLEWIGMIHPNSGSTNYNEKFKSKATLTVDKSSSTAYMQLSSLTSEDSAVYYCARPVVPYWYFDVWGTGTTVTVSS VL: DIVMTQSQKFMSTTVGDRVSITCKASQNVGTAVAWYQQKPGQSPKLLIYSASNRYTGVPDRFTGSGSGTDFTLTISNMQSEDLADYFCQQSSSYPLTFGAGTKLELKR
~0.79 | 67000 | 0.54 | 6140 |  | 95 |  | 94 |  |  |  |  |  |  |  |  | no binding | no binding | S009-F2-56.12 (antibody, human IgG1, kappa, V domains shown, human-murine chimeric antibody, human IgG1/kappa constant regions) VH: DVQLQESGPGMVKPSQSLSLTCTVTGYSITSGYDWHWIRHFPGNKLEWMGYISYSGSTNYNPSLKSRISITHDTSKNHFFLKLKSVTTEDTATYYCARGTGPDYWGQGTTLTVSS VL: DIVMTQSQKFMSTSVGDRVSITCKASQNVRTAVAWYQQKPGQSPKALIHLPSNRHTGVPDRFTGSGSGTDFTLTISNVQSEDLADYFCLQHWNYPLTFGGGTKLEIKR
1.15 | 112000 | 0.57 | 14800 |  | 138 |  | 112 |  |  |  |  |  |  |  |  | no binding | no binding | S009-F2.13.3 (antibody, human IgG1, kappa, V domains shown, human-murine chimeric antibody, human IgG1/kappa constant regions) VH: QVQLQQSGAELMKPGASVKLSCKATGYTFTGYWIEWVKQRPGHGLEWIGEILPGSGSTNYNEKFKGKATFTADTSSNTAYMQLSSLTTEDSAIYYCARAGAWFAYWGQGTLVTVSA VL: QIVLTQSPAIMSASLGERVTMTCTASSSVSSSYLHWYQQKPGSSPKLWTYSTSNLASGVPARFSGSGSGTSYSLTISSMEAEDAATYYCHQYHRSPWTFGGGTKLEIKR
~0.82 | 91800 |  | 5260 | 0.44 | 20100 |  | 348 |  |  |  |  |  |  |  |  | no binding |  | S009-F2.21.4 (antibody, human IgG1, kappa, V domains shown, human-murine chimeric antibody, human IgG1/kappa constant regions) VH: EVQLQQSGPELVKPGASVKIPCKASGYTFTDYNMDWVKQSHGKSLEWIGDINPNNGGSIYNQRFKGKATLTVDKSSSTAYMELRSLTSEDSAVYYCARRAYYSTGYFDVWGTGTTVTVSS VL: QIVLTQSPALMSASPGEKVTITCSASSSISYMHWFQQKPGTSPKLWIYSTSTLASGVPARFSGSGSGTSYSLTISRMEAEDTATYYCQQRSSYPPTFGGGTKLEIKR
0.88 | 109000 | 2.96 | 14400 | 0.3 | 18400 |  | 114 |  |  |  |  |  |  |  |  | no binding |  | S009-F2.16.10 (antibody, human IgG1, kappa, V domains shown, human-murine chimeric antibody, human IgG1/kappa constant regions) VH: QVQLQQPGAELIKPGASVKLSCKASGYTFTSYWMHWVKQRPGQGLEWIGIIHPNIGSTNYNERFKSKATLTVDKSSSTAYMQLSSLTSEDSAVYYCARRSSNYGDWYFDVWGTGTTVTVSS VL: DIVMTQSHRFMSTSVGDRVSITCKASQDVGTSVAWYQQKPGQSPKLLIYWASTQHTGVPDRFTGSGSGTDFTLTINNVQSEDLLDYFCQQYSSYPLTFGAGTKLELKR
